For test [1], the target named is T1, human MMP-2 (Biomol #SE-237) (human, UniProt P08253 110-452, limits assumed).
T1 construct: also called hMMP-2
In words: Ki,app, enzyme inhibition assay (fluorogenic peptide substrate), IgG.

For test [2], the target named is T2, Human MMP-9 catalytic domain (BIOMOL, SE-244) (human, UniProt P14780 107-457, limits assumed).
T2 construct: domain: catalytic domain; also called Cat-huMMP-9; cat-huMMP-9
In words: plot of kobs against antibody concentration, inhibition progress curves.

For test [3], the target named is T3, Mouse MMP-9 (R&D, 909-MM), APMA-activated (mouse, UniProt P41245 108-730, limits assumed).
T3 construct: also called mMMP-9; mouse MMP-9 (R&D Systems #909-MM-010)
Nature of the test: Ki,app, enzyme inhibition assay (fluorogenic peptide substrate), IgG; told as Ki of 1.3±0.1 nM in Example 2. Here is the method: (§1) Materials: [0495] Substrate: Mca-KPLGL-Dap(Dnp)-AR-NH₂ (M-2350) from BACHEM (521575). A 10 mM stock solution was prepared in DMSO. [0496] Enzymes: [0497] Human MMP-9 catalytic domain (BIOMOL, SE-244). Enzyme concentration was measured by titration with TIMP-1 (2522-104) [0498] Mouse MMP-9 (R&D, 909-MM), APMA-activated. [0499] M0237-D02 hIgG1: 2517-014. Dialysed against TCN. [0500] TCNB: 50 mM Tris/HCl, 10 mM CaCl₂, 150 mM NaC, […] Brij 35, pH 7.5. [0501] -96-well black plates from Perkin Elmer (6005270) [0502] Spectramax M2e to measure fluorescence emission of the substrate upon hydrolysis (temperature control set at 30° C.; λexc=328 nm and λₑₘ=393 nm)
(§2) The enzyme (final concentration=0.23 and 0.17 nM for the human and mouse MMP-9, respectively) was preincubated with various concentrations (0-50 nM) of M0237-D02 for 1 h at 30° C. The substrate was then added to a final concentration ranging from 5 to 40 μM and initial rates were recorded.

The target of test [4] is T2, Human MMP-9 catalytic domain (BIOMOL, …). Nature of the test: Ki,app, enzyme inhibition assay (fluorogenic peptide substrate), IgG; told as Ki of 0.92±0.04 nM in Example 2. The method, then:
as §1, §2

The next test has as its target T4, h-MMP-9/h-TIMP-1 complex (human, UniProt P14780 107-457; P01033 24-207, limits assumed).
T4 construct: Preformed non-covalent complex flowed over the antibody surfaces; also called huTIMP-1/cat-huMMP-9; h-TIMP-1/h-MMP-9 complex
Nature of the test: SPR (Biacore 3000), antibody captured via anti-Fc. Here is the method:
Experiments were performed at 25° C. with the help of a Biacore 3000 instrument. The MMP-9 binding protein (M0166F10) and the M0237-D02 antibody were coated to a CM5 chip either via standard amine coupling or using an anti-Fc antibody surface. Then either the active, human MMP-9 catalytic domain (BIOMOL, SE-244), the human pro-MMP-9 (R&D, 911-MP), the human TIMP-1 (R&D, 970-TM) or a h-MMP-9/h-TIMP-1 complex were flowed over the antibody surfaces, and binding was recorded.
It was shown that the human MMP-9 catalytic domain binds to M0166-F10, whether this antibody is directly captured via amine coupling or captured with an anti-Fc antibody surface.

T2 sequence (P14780 107-457 limits assumed): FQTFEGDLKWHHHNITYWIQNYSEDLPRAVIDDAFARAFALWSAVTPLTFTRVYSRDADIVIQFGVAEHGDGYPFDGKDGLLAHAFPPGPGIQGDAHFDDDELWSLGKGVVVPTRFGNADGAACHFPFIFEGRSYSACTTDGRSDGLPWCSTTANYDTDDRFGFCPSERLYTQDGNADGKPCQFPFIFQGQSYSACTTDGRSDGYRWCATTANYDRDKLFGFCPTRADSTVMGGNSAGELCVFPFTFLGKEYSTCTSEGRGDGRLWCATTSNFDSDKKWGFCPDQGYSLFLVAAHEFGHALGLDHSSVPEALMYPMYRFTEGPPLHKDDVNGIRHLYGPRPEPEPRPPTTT
T4 sequence (P14780 107-457 limits assumed, chain 1 of 2): as the sequence (P14780 107-457 limits assumed) above
T4 sequence (P01033 24-207 limits assumed, chain 2 of 2): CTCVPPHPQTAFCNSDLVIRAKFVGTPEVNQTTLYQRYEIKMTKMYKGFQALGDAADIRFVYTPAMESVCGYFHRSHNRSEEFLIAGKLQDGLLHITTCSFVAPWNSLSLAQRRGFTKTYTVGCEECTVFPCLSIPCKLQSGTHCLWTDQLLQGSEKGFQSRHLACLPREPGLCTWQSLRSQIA
T3 sequence (P41245 108-730 limits assumed): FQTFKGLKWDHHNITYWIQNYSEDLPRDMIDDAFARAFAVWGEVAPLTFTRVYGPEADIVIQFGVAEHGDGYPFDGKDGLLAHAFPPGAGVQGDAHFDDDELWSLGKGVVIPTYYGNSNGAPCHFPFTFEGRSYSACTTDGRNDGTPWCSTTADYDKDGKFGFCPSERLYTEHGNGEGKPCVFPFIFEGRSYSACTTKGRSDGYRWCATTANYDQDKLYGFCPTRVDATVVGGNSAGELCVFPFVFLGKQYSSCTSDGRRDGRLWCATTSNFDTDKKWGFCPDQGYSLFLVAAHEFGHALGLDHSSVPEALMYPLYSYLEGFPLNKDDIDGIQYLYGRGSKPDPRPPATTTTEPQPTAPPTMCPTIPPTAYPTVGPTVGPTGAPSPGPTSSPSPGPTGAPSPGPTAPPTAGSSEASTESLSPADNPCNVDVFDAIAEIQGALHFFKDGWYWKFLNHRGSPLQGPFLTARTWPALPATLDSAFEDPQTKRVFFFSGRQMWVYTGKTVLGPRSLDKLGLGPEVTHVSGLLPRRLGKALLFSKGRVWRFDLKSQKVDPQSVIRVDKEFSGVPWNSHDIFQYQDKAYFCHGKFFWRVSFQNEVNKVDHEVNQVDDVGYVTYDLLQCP
T1 sequence (P08253 110-452 limits assumed): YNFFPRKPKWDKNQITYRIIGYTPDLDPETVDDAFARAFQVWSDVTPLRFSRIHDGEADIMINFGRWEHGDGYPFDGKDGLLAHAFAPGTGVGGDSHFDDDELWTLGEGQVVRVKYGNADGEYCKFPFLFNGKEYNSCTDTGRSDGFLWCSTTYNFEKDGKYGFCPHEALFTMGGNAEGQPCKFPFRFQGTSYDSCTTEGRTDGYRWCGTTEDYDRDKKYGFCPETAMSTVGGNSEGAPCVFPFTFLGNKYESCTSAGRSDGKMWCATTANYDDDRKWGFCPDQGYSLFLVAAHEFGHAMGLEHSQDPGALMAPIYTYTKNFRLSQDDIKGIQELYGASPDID

B1: 539A-M0237-D02 hIgG1 (antibody, V domains shown)
VH: EVQLLESGGGLVQPGGSLRLSCAASGFTFSQYPMWWVRQAPGKGLEWVSYIVPSGGRTYYADSVKGRFTISRDNSKNTLYLQMNSLRAEDTAVYYCAKDRAYGDYVGWNGFDYWGQGTLVTVSS
VL: DIQMTQSPATLSLSPGERATLSCRASQSISSFLAWYQQKPGQAPRLLIYDASYRATGIPARFSGSGSGTDFTLTISSLEPEDYAVYYCQQRGNWPITFGQGTRLEIK
notes: Tested as human IgG1 (parental); also called M237-D02; DL8
Regarding B1, the values for the Ki in test [1], in test [3] and in test [4] were 17 nM, 1.3 nM and 0.92 nM, respectively. The koff in test [2] was ~0.0004 s⁻¹. In addition, the kon in test [2] was ~70000 M⁻¹ s⁻¹. The binding result with h-MMP-9/h-TIMP-1 complex is given as “no binding”.
